Results reported in IntAct's records for PubMed 21621563.

B1: Forkhead box protein O3 (Homo sapiens), O43524 (parent)
chain: MAEAPASPAPLSPLEVELDPEFEPQSRPRSCTWPLQRPELQASPAKPSGETAADSMIPEEEDDEDDEDGGGRAGSAMAIGGGGGSGTLGSGLLLEDSARVLAPGGQDPGSGPATAAGGLSGGTQALLQPQQPLPPPQPGAAGGSGQPRKCSSRRNAWGNLSYADLITRAIESSPDKRLTLSQIYEWMVRCVPYFKDKGDSNSSAGWKNSIRHNLSLHSRFMRVQNEGTGKSSWWIINPDGGKSGKAPRRRAVSMDNSNKYTKSRGRAAKKKAALQTAPESADDSPSQLSKWPGSPTSRSSDELDAWTDFRSRTNSNASTVSGRLSPIMASTELDEVQDDDAPLSPMLYSSSASLSPSVSKPCTVELPRLTDMAGTMNLNDGLTENLMDDLLDNITLPPSQPSPTGGLMQRSSSFPYTTKGSGLGSPTSSFNSTVFGPSSLNSLRQSPMQTIQENKPATFSSMSHYGNQTLQDLLTSDSLSHSDVMMTQSDPLMSQASTAVSAQNSRRNVMLRNDPMMSFAAQPNQGSLVNQNLLHHQHQTQGALGGSRALSNSVSNMGLSESSSLGSAKHQQQSPVSQSMQTLSDSLSGSSLYSTSANLPVMGHEKFPSDLDLDMFNGSLECDMESIIRSELMDADGLDFNFDSLISTQNVVGLNVGNFTGAKQASSQSWVPG

What was measured:
[1] = variants of: B1; conditions: with 1433z_mouse Ywhaz
[2] = variants of: B1; conditions: with akt1_human AKT1, P31749
Sequence of akt1_human AKT1, P31749 (P31749 whole entry): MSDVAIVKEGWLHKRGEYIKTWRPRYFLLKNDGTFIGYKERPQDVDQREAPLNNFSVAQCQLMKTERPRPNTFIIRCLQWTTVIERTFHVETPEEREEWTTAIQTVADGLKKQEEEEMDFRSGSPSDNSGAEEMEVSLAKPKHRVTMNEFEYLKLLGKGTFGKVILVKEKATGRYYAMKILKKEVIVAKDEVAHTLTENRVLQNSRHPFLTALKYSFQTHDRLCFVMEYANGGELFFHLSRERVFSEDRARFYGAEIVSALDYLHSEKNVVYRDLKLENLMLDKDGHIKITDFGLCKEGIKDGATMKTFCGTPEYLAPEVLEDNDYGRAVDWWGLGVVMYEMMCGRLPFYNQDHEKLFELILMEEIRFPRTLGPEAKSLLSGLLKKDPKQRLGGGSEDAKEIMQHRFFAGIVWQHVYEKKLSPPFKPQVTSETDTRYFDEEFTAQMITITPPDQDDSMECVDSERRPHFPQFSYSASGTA

Variant | effect of a mutation on the interaction [1] | effect of a mutation on the interaction [2]
R27L;R29L | disrupting interaction strength | with no effect
R27L;R29L;R248L;R250L | disrupting interaction strength | decreasing interaction strength
R27L;R29L;R248L;R250L;R310L;R312L | disrupting interaction strength | decreasing interaction strength
T32A;S253A;S315A | disrupting interaction strength | decreasing interaction strength
P34A | decreasing interaction strength | with no effect
